In patent US20090118194A1, “Measurement of melanocortin peptides and uses thereof” (Auckland UniServices Limited, priority 2002, published 2009):
Entries after “also recorded” stand apart in the source; their conditions may differ.

System: primary rat osteoblasts
Test: Primary rat osteoblast proliferation assay ([3H]thymidine incorporation, cell number)
Format: cell-based
Source text: Primary rat osteoblasts were isolated from 20 day fetal rat calvariae. (The use of animals for these studies was approved by the Auckland Animal Ethics Committee.) Calvariae were excised and the frontal and parietal bones, free of suture and periosteal tissue, were collected and sequentially digested using collagenase as previously described (Cornish J, Callon K E, Lin C Q X, Xiao C L, Mulvey T B, Cooper G J S, Reid I R Trifluoroacetate, a contaminant in puritied proteins, inhibits proliferation of osteoblasts and chondrocytes. Amer J Physiol Endocrinol Metab 277: E779-E783, 1999). Primary rat osteoblasts were grown in DMEM supplemented with 10% FCS, 50 U/ml penicillin and 50 μg/ml streptomycin. After 48 hour, the medium was changed to MEM. Confluence was reached within 5-6 days, at which time the cells were subcultured into 10 cm culture plates for RNA preparation or 24 well plates for proliferation assays.
Primary rat osteoblasts were subcultured into 24 well plates at a density of 5×10^4 cells/ml/well in MEM, 5% FCS for 24 hours. Cells were growth arrested in MEM, 0.1% bovine serum albumin (BSA) for 24 hour and then fresh media and experimental compounds were added for a further 24 hours. Cells were pulsed with [^3H]thymidine (0.5 μCi/well) 2 hours before the end of the experimental incubation. The experiment was terminated and both cell numbers and thymidine incorporation were assessed. Cell numbers were analysed by detaching cells from the wells by exposure to trypsin/EDTA (0.05%/0.53 mM) for approximately 5 minutes at 37° C. Counting was performed in a hemocytometer chamber. Results are expressed per well. [^3H]Thymidine incorporation was analysed by washing the cells in MEM followed by the addition of 10% trichloroacetic acid. The precipitate was washed twice with ethnol:ether (3:1) and the wells desiccated at room temperature. The residue was dissolved in 2M KOH at 55° C. for 30 minutes, neutralized with 1M HCl, and an aliquot counted for radioactivity. Results are expressed as dpm per well. Each experiment was performed at least three times using experimental groups consisting of at least six wells.
Data are presented as mean±SEM. The significance of differences between groups was determined using Student's t tests for unpaired data and a 5% significance level. The comparisons to be made in each experiment were specified a priori, so no adjustment for multiple comparisons was necessary. Where several experiments have been shown in one figure, the data are expressed as the ratio of results in treatment groups to those in the control group and the ‘P’ values shown were calculated using the data from the individual experiments, before the data were pooled.

Row | Molecule | antagonism of α-MSH stimulated [3H] thymidine uptake (10^−7 M against α-MSH 10^−8 M and 10^−7 M, growth arrested primary rat osteoblasts) | thymidine incorporation or cell numbers (proliferation) (growth arrested primary rat osteoblasts, 10^−7 M, alone) | antagonism of α-MSH stimulated osteoblast proliferation (agouti protein 10^−9 M-10^−7 M, primary rat osteoblasts) | thymidine incorporation (growth arrested primary rat osteoblasts, 10^−9-10^−7 M, alone) | additivity with α-MSH stimulated thymidine incorporation (primary rat osteoblasts)
1 | ACTH1-24: melanocortin peptide purchased from Bachem California (SYSMEHFRWGKPVGKKRRPVKVYP; Corticotropin; UniProt P01189 138-161, looked up, fragment) | inhibited two doses of α-MSH (10^−8 M and 10^−7 M) from stimulating [^3H] thymidine uptake; also recorded: antagonise α-MSH stimulated stimulation of thymidine incorporation | did not stimulate thymidine incorporation or cells numbers; also recorded: no significant effect on osteoblast proliferation |  |  | 
2 | agouti protein: recombinant mouse agouti protein, antagonist of melanocortin peptides coupling MC1-R, MC2-R, and MC4-R (protein, UniProt Q03288 23-131, looked up) Agouti-signaling protein: HLALEETLGDDRSLRSNSSMNSLDFSSVSIVALNKKSKKISRKEAEKRKRSSKKKASMKKVARPPPPSPCVATRDSCKPPAPACCDPCASCQCRFFGSACTCRVLNPNC |  |  | did not antagonise α-MSH stimulated osteoblast proliferation | significantly stimulated thymidine incorporation | not additive
